Measured values taken from article PMC8204860, “Structural basis of [sequence]‐mediated Rab1 activation” (The EMBO Journal, 2021).

Target: T1, Trs31 (Saccharomyces cerevisiae, UniProt Q03337 1-283)
T1 construct: Trs31, TRAPP core subunit, S. cerevisiae; also called Trs31 subunit
T1 sequence: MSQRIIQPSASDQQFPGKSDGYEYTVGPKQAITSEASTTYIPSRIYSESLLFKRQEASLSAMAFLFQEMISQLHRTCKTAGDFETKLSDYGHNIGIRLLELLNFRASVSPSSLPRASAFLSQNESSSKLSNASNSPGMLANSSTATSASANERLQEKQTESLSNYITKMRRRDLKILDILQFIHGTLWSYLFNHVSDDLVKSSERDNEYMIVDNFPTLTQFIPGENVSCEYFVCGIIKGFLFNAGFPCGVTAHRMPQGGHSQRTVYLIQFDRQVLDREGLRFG
Test: cryo-EM structure; TRAPPIII (after anion exchange) mixed 1:3 with Ypt1-7xHis, overnight at 4°C with calf intestinal alkaline phosphatase, complex isolated by SEC in 10 mM Tris pH 7.5, 350 mM NaCl, 1 mM DTT; 3.7 Å reconstruction
Details: both partners purified

B1: Rab1/Ypt1 (Ypt1-7xHis) (natural protein)
chain: not shown
notes: Rab1/Ypt1, budding yeast GTPase; Made nucleotide-free in the complex by alkaline phosphatase. pGEX-6P backbone; gift from the T. Bretscher laboratory; also called GST-Ypt1-7xHis (before cleavage); source: E. coli Rosetta2, purified (glutathione resin, eluted by PreScission cleavage of GST); not shown: GST, N-terminal, cleaved
  binding result: binds
